Experiments:
PCSK9 [1] = target: T1, PCSK9 (Homo sapiens, UniProt Q8NBP7); experiment: Example 2 clinical study, single escalating IV doses: fasting lipids; format: in vivo
T1 construct: PCSK9 antagonist antibody that antagonizes circulating PCSK9; endogenous in cells; host or cells: human subjects in clinical trials (in vivo, circulating PCSK9)
Procedure: The study entailed a randomized, placebo-controlled, ascending, single dose study of L1L3. The subjects, investigator, and site personnel (except site personnel responsible for drug preparation) were blinded to treatment assignments, as was the CRO designee; while the Sponsor clinical research team was unblinded. The study was conducted in 6 planned cohorts of 8 subjects per cohort in an effort to seek a maximum tolerated dose or MTD (total of approximately 48 subjects). […] Doses were administered following an overnight fast as an intravenous infusion over 60 minutes. […] Infusions will be administered as a single infusion over 60 minutes.
Change in serum lipids (total cholesterol, LDL, HDL, Triglycerides, Non-HDL-C and Apoprotein B) were assessed.
Collection of fasting lipid profile was performed after at least a 10-hour fast (total cholesterol, LDL, HDL, Non-HDL Cholesterol, Apo B and triglycerides).

PCSK9 [2] = target: T1, PCSK9; experiment: Example 3 clinical study, single IV dose on stable atorvastatin: fasting LDL-C; format: in vivo
Text: Subjects who have hypertension and are controlled on stable dosages of anti-hypertensive medications could be included. The study included both genders, with a minimum age limit of 18 and a maximum age limit of 80.

T1 sequence (Q8NBP7 153-692): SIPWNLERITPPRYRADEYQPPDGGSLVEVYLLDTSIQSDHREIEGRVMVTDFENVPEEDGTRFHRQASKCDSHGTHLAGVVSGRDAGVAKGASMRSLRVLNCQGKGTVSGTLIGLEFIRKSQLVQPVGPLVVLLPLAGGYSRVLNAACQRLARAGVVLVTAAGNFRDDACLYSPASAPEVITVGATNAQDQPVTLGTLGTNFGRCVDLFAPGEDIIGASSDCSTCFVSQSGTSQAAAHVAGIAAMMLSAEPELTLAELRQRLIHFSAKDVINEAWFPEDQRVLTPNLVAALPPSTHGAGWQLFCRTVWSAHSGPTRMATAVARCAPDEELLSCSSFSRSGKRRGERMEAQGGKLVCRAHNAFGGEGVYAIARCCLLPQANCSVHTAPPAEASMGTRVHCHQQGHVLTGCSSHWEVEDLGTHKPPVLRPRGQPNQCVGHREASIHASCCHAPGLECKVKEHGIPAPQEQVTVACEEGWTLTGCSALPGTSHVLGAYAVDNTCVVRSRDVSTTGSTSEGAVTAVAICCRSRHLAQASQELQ
T1 sequence (Q8NBP7 31-152 partner limits assumed): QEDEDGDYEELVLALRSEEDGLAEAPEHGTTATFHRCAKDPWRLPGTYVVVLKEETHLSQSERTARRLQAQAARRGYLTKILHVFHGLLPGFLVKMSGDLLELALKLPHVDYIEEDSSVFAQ

B1: L1L3: humanized (<5% murine residues) monoclonal PCSK9 antagonist antibody that binds to secreted PCSK9; VH SEQ ID NO: 11, VL SEQ ID NO: 12 (antibody, V domains shown)
VH: QVQLVQSGAEVKKPGASVKVSCKASGYTFTSYYMHWVRQAPGQGLEWMGEISPFGGRTNYNEKFKSRVTMTRDTSTSTVYMELSSLRSEDTAVYYCARERPLYASDLWGQGTTVTVSS
VL: DIQMTQSPSSLSASVGDRVTITCRASQGISSALAWYQQKPGKAPKLLIYSASYRYTGVPSRFSGSGSGTDFTFTISSLQPEDIATYYCQQRYSLWRTFGQGTKLEIK
modifications: heavy chain variable region; light chain variable region
mean percentage change from baseline of fasting LDL-C (PCSK9 [1]; single IV 3 mg/kg, visit day 4): −19.10% | mean percentage change from baseline of fasting LDL-C (PCSK9 [1]; single IV 3 mg/kg, visit day 8): −39.78% | mean percentage change from baseline of fasting LDL-C (PCSK9 [1]; single IV 3 mg/kg, visit day 15): −57.93% | mean percentage change from baseline of fasting LDL-C (PCSK9 [1]; single IV 3 mg/kg, visit day 22): −65.09% | mean percentage change from baseline of fasting LDL-C (PCSK9 [1]; single IV 3 mg/kg, visit day 29): −64.77% | mean percentage change from baseline of fasting LDL-C (PCSK9 [1]; single IV 3 mg/kg, visit day 43): −27.56% | mean percentage change from baseline of fasting LDL-C (PCSK9 [1]; single IV 6 mg/kg, visit day 1): 0.000% | mean percentage change from baseline of fasting LDL-C (PCSK9 [1]; single IV 6 mg/kg, visit day 2): −1.44% | mean percentage change from baseline of fasting LDL-C (PCSK9 [1]; single IV 6 mg/kg, visit day 3): −9.23% | mean percentage change from baseline of fasting LDL-C (PCSK9 [1]; single IV 6 mg/kg, visit day 4): −18.80% | mean percentage change from baseline of fasting LDL-C (PCSK9 [1]; single IV 6 mg/kg, visit day 8): −43.77% | mean percentage change from baseline of fasting LDL-C (PCSK9 [1]; single IV 6 mg/kg, visit day 15): −61.52% | mean percentage change from baseline of fasting LDL-C (PCSK9 [1]; single IV 6 mg/kg, visit day 22): −68.92% | mean percentage change from baseline of fasting LDL-C (PCSK9 [1]; single IV 6 mg/kg, visit day 29): −64.19% | mean percentage change from baseline of fasting LDL-C (PCSK9 [1]; single IV 6 mg/kg, visit day 36): −67.70% | mean percentage change from baseline of fasting LDL-C (PCSK9 [1]; single IV 6 mg/kg, visit day 43): −64.18% | mean percentage change from baseline of fasting LDL-C (PCSK9 [1]; single IV 6 mg/kg, visit day 50): −49.17% | mean percentage change from baseline of fasting LDL-C (PCSK9 [1]; single IV 6 mg/kg, visit day 57): −36.12% | mean percentage change from baseline of fasting LDL-C (PCSK9 [1]; single IV 12 mg/kg, visit day 1): 0.000% | mean percentage change from baseline of fasting LDL-C (PCSK9 [1]; single IV 12 mg/kg, visit day 2): −8.26% | mean percentage change from baseline of fasting LDL-C (PCSK9 [1]; single IV 12 mg/kg, visit day 3): −14.05% | mean percentage change from baseline of fasting LDL-C (PCSK9 [1]; single IV 12 mg/kg, visit day 4): −23.23% | mean percentage change from baseline of fasting LDL-C (PCSK9 [1]; single IV 12 mg/kg, visit day 8): −37.96% | mean percentage change from baseline of fasting LDL-C (PCSK9 [1]; single IV 12 mg/kg, visit day 15): −66.25% | mean percentage change from baseline of fasting LDL-C (PCSK9 [1]; single IV 12 mg/kg, visit day 22): −59.79% | mean percentage change from baseline of fasting LDL-C (PCSK9 [1]; single IV 12 mg/kg, visit day 29): −74.67% | mean percentage change from baseline of fasting LDL-C (PCSK9 [1]; single IV 12 mg/kg, visit day 36): −65.23% | mean percentage change from baseline of fasting LDL-C (PCSK9 [1]; single IV 12 mg/kg, visit day 43): −69.31% | mean percentage change from baseline of fasting LDL-C (PCSK9 [1]; single IV 12 mg/kg, visit day 50): −56.08% | mean percentage change from baseline of fasting LDL-C (PCSK9 [1]; single IV 12 mg/kg, visit day 57): −63.10% | mean percentage change from baseline of fasting LDL-C (PCSK9 [1]; single IV 18 mg/kg, visit day 1): 0.000% | mean percentage change from baseline of fasting LDL-C (PCSK9 [1]; single IV 18 mg/kg, visit day 2): −11.52% | mean percentage change from baseline of fasting LDL-C (PCSK9 [1]; single IV 18 mg/kg, visit day 3): −22.43% | mean percentage change from baseline of fasting LDL-C (PCSK9 [1]; single IV 18 mg/kg, visit day 4): −34.36% | mean percentage change from baseline of fasting LDL-C (PCSK9 [1]; single IV 18 mg/kg, visit day 8): −43.70% | mean percentage change from baseline of fasting LDL-C (PCSK9 [1]; single IV 18 mg/kg, visit day 15): −82.89% | mean percentage change from baseline of fasting LDL-C (PCSK9 [1]; single IV 18 mg/kg, visit day 22): −72.97% | mean percentage change from baseline of fasting LDL-C (PCSK9 [1]; single IV 18 mg/kg, visit day 29): −67.40% | mean percentage change from baseline of fasting LDL-C (PCSK9 [1]; single IV 18 mg/kg, visit day 36): −61.47% | mean percentage change from baseline of fasting LDL-C (PCSK9 [1]; single IV 18 mg/kg, visit day 43): −80.21% | Fasting triglyceride (TGs) levels (PCSK9 [1]; single IV 0.3-18 mg/kg, baseline 173 mg/dL): remained unchanged | High density lipoprotein cholesterol (HDL-C) levels (PCSK9 [1]; single IV 0.3-18 mg/kg, baseline about 49 mg/dL): did not change significantly | mean percent change from baseline of fasting LDL-C (PCSK9 [2]; 0.5 mg/kg L1L3, atorvastatin 40 mg daily, Day 0): 0.0% | mean percent change from baseline of fasting LDL-C (PCSK9 [2]; 0.5 mg/kg L1L3, atorvastatin 40 mg daily, Day 1): −28.8% | mean percent change from baseline of fasting LDL-C (PCSK9 [2]; 0.5 mg/kg L1L3, atorvastatin 40 mg daily, Day 2): −48.5% | mean percent change from baseline of fasting LDL-C (PCSK9 [2]; 0.5 mg/kg L1L3, atorvastatin 40 mg daily, Day 3): −66.7% | mean percent change from baseline of fasting LDL-C (PCSK9 [2]; 0.5 mg/kg L1L3, atorvastatin 40 mg daily, Day 11): −34.4% | mean percent change from baseline of fasting LDL-C (PCSK9 [2]; 0.5 mg/kg L1L3, atorvastatin 40 mg daily, Day 18): 9.0% | mean percent change from baseline of fasting LDL-C (PCSK9 [2]; 0.5 mg/kg L1L3, atorvastatin 40 mg daily, Day 25): 23.3% | mean percent change from baseline of fasting LDL-C (PCSK9 [2]; 0.5 mg/kg L1L3, atorvastatin 40 mg daily, Day 32): 14.8% | mean percent change from baseline of fasting LDL-C (PCSK9 [2]; 0.5 mg/kg L1L3, atorvastatin 40 mg daily, Day 39): 21.2% | mean percent change from baseline of fasting LDL-C (PCSK9 [2]; 0.5 mg/kg L1L3, atorvastatin 40 mg daily, Day 46): 17.0% | mean percent change from baseline of fasting LDL-C (PCSK9 [2]; 0.5 mg/kg L1L3, atorvastatin 40 mg daily, Day 53): 27.9% | mean percent change from baseline of fasting LDL-C (PCSK9 [2]; 0.5 mg/kg L1L3, atorvastatin 40 mg daily, Day 60): 30.1% | Day on which the maximum LDL-C lowering effect was observed (PCSK9 [2]; 0.5 mg/kg L1L3, atorvastatin 40 mg, day following L1L3 administration): 3 days | mean percent change from baseline of fasting LDL-C (PCSK9 [2]; 4 mg/kg L1L3, atorvastatin 40 mg daily, Day 0): 0.0% | mean percent change from baseline of fasting LDL-C (PCSK9 [2]; 4 mg/kg L1L3, atorvastatin 40 mg daily, Day 1): −20.9% | mean percent change from baseline of fasting LDL-C (PCSK9 [2]; 4 mg/kg L1L3, atorvastatin 40 mg daily, Day 2): −38.4% | mean percent change from baseline of fasting LDL-C (PCSK9 [2]; 4 mg/kg L1L3, atorvastatin 40 mg daily, Day 3): −43.3% | mean percent change from baseline of fasting LDL-C (PCSK9 [2]; 4 mg/kg L1L3, atorvastatin 40 mg daily, Day 11): −64.6% | mean percent change from baseline of fasting LDL-C (PCSK9 [2]; 4 mg/kg L1L3, atorvastatin 40 mg daily, Day 18): −73.2% | mean percent change from baseline of fasting LDL-C (PCSK9 [2]; 4 mg/kg L1L3, atorvastatin 40 mg daily, Day 25): −70.8% | mean percent change from baseline of fasting LDL-C (PCSK9 [2]; 4 mg/kg L1L3, atorvastatin 40 mg daily, Day 32): −69.9% | mean percent change from baseline of fasting LDL-C (PCSK9 [2]; 4 mg/kg L1L3, atorvastatin 40 mg daily, Day 39): −45.1% | mean percent change from baseline of fasting LDL-C (PCSK9 [2]; 4 mg/kg L1L3, atorvastatin 40 mg daily, Day 46): −19.2% | mean percent change from baseline of fasting LDL-C (PCSK9 [2]; 4 mg/kg L1L3, atorvastatin 40 mg daily, Day 53): −3.6% | mean percent change from baseline of fasting LDL-C (PCSK9 [2]; 4 mg/kg L1L3, atorvastatin 40 mg daily, Day 60): 7.1% | Day through which the maximum LDL-C lowering effect was observed (PCSK9 [2]; 4 mg/kg L1L3, atorvastatin 40 mg, day following L1L3 administration): 32 days

Source: patent publication US20140161821A1, “TREATMENT WITH ANTI-PCSK9 ANTIBODIES” (PFIZER INC., priority 2011, published 2014)
